# Source: article PMC8870054
# Biological target: CLOBY biosensor (His6-mClover3-spacer with TEV site-Src SH4, unique and SH3 domains-spacer-mRuby3)
# Test: dynamic light scattering; hydrodynamic radius at variable concentrations up to 275 uM, 25 °C; apparent; dimer to monomers
substance,measurement,value
"CLOBY biosensor (His6-mClover3-spacer with TEV site-Src SH4, unique and SH3 domains-spacer-mRuby3)",Kd,700 µM
